Measured values as given in article PMC10095097.

Biological target: NTR 2.0 (engineered nitroreductase; Vibrio vulnificus NfsB F70A/F108Y) (Vibrio vulnificus (CMCP6))
Test: crystal structure; hanging-drop vapour diffusion at 291 K; protein 10 mg/mL in 40 mM Tris-HCl pH 7.0, 200 mM NaCl; precipitant 0.1 M sodium acetate trihydrate pH 4.5, 32% (v/v) PEG 300; two molecules in the asymmetric unit; FMN and acetate bound

Substance: NTR 2.0 (engineered nitroreductase; Vibrio vulnificus NfsB F70A/F108Y) (enzyme)
- stoichiometry N: 2
